The target of test [1] is DDR1 with a ProLink Tag (PK) in engineered U20S cells (DiscoveRx), Q08345. Briefly: cell-based or functional assay.
The next test addresses T1, mouse ECD-DDR1-Fc (mouse; human, UniProt Q03146 22-414).
T1 construct: also called mouse DDR1-ECD; wild-type mouse DDR1-ECD; not shown: human IgG1 Fc of the vector pFuse-hIgG1-Fc1 (Invivogen)
T1 sequence: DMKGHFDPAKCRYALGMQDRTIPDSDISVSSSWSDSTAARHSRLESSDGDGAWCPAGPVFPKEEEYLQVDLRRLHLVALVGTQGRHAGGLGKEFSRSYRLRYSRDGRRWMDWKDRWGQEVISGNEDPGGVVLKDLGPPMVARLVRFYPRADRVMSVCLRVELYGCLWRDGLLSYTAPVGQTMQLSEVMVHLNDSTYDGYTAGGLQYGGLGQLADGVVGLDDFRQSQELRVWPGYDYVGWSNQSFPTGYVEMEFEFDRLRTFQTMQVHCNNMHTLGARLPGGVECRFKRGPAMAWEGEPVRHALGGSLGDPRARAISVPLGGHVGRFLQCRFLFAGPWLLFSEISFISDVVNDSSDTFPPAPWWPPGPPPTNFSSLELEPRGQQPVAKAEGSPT
Briefly: ELISA, coated antigen, apparent KD. As for the experimental part:
(§1) In this study, ELISA was used to determine the affinity of murine anti-DDR1 monoclonal antibodies to the extracellular domain (ECD) of either human or murine DDR1. A 96-well MaxiSorb ELISA plates (Nunc) were coated with 2 μg/mL of one of three purified recombinant tagged proteins: human ECD-DDR1-His protein, human ECD-DDR1-Fc, or mouse ECD-DDR1-Fc overnight at 4° C. The next day, the plates were blocked with 5% bovine serum albumin (BSA, Jackson Immunoresearch) prior to the addition of serially diluted anti-DDR1 monoclonal antibodies. Antibodies were incubated for 1 hr at room temperature. The binding of antibody to the antigen was detected by incubating samples with anti-mouse IgG-HRP (horse radish peroxidase) secondary detection antibody (Jackson Immunoresearch) for 1 hr. After a washing step, 3,3′,5,5″-tetramethylbenzidine (TMB) reagent was added for HRP to produce a colorimetric signal. The reaction was stopped by addition of 1M hydrochloric acid after 2 minutes and measured for absorbance (optical density, OD) at 450λ on a Molecular Devices plate reader. The OD values were plotted against antibody concentration and fitted using a using 4-parameter logistic equation in SoftMax software (Molecular Devices). The apparent affinity constant (KD) was taken from the C-parameter of the equation (y=(A−D)/(1+(x/C)̂B)+D). The apparent affinity constants were summarized (in some cases shown as average values) in Table 10 below. Lower value indicates higher binding affinity of the antibody to the antigen.
In general terms: In an ELISA, binding on a coated surface is turned into a signal by an enzyme label.

Test [2] deals with T2, human ECD-DDR1-His protein (human, UniProt Q08345 21-416).
T2 construct: also called huDDR1-ECD-His; DDR1ECD-6Xhis; not shown: His tag
The test is described as follows: ELISA, coated antigen, apparent KD. As for the experimental part:
as §1

Test [3] concerns the target T3, DDR1ECD-Fc (R&D Systems, Catalog #2396-DR) (human, UniProt Q08345 21-416).
T3 construct: range 21-416; construct as described for the bought immunogen; also called human ECD-DDR1-Fc; Fc-ECD-DR1; not shown: human IgG1, Pro100-Lys330
Briefly: ELISA, coated antigen, apparent KD. As to the method: as §1

In test [4] the target is DDR1 endogenously expressed on human cancer cell lines (T47D, HCT-116, A431) (human) (UniProt Q08345). Briefly: cell-based or functional assay.
Test [5] concerns the target human DDR1 (isoform B) stably expressed on HEK293 cells (human) (UniProt Q08345). Briefly: flow cytometry, HEK293/hDDR1. In general terms: A flow cytometer gives signals particle by particle.
Test [6] concerns the target DDR1 endogenously expressed on human cancer cell lines (T47D, HCT-116, A431) (human) (UniProt Q08345). The test is described as follows: flow cytometry, HCT116 cells.
Test [7] shares this target. Briefly: flow cytometry, T47D cells.
In test [8] the target is T4, human DDR2 stably expressed on HEK293 cells (human) (UniProt Q16832).
T4 sequence (looked up): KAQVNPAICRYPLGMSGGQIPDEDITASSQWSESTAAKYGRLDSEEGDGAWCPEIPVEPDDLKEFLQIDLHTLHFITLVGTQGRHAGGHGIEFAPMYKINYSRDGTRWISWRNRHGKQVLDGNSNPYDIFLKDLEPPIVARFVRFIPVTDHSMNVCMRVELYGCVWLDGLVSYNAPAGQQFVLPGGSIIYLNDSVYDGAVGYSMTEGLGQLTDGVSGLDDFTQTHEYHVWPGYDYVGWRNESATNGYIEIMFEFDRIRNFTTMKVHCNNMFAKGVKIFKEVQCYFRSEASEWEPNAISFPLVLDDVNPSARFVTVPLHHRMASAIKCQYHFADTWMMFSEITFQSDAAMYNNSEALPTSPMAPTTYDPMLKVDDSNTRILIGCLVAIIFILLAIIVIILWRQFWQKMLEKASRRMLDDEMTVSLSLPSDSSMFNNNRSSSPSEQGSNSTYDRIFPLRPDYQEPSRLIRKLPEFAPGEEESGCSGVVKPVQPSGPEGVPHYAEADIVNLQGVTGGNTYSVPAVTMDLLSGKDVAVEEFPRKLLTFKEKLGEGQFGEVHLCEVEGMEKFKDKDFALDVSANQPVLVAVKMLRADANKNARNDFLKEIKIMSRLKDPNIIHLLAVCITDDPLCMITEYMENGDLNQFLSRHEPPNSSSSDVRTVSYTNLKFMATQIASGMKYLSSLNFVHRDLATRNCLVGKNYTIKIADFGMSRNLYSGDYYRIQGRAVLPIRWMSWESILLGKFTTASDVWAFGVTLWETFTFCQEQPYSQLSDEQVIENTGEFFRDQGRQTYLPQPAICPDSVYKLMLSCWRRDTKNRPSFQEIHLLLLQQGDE
Briefly: flow cytometry, HEK293/hDDR2.

Test [9] concerns the target DDR1 with a ProLink Tag (PK) in engineered U20S cells (DiscoveRx) (UniProt Q08345). Briefly: cell-based or functional assay.
In test [10] the target is DDR1 endogenously expressed on human cancer cell lines (T47D, HCT-116, A431) (human) (UniProt Q08345). The test is described as follows: cell-based or functional assay. The source holds these as a separate data set.
The target in test [11] is T5, human DDR2 stably expressed on HEK293 cells (human, UniProt Q16832 22-855).
T5 construct: whole, on cells; also called hDDR2
T5 sequence (looked up): T4 sequence (looked up)
The test is described as follows: flow cytometry, HEK293/hDDR2. As for the experimental part:
Additional monoclonal antibodies were obtained from individual hybridomas in Example 1 and were characterized for their properties.
Cells were cultured in DMEM with 10% FBS and 0.8 mg/mL hygromycin. When cells reached 60-80% confluence, they were centrifuged at 1,200 rpm for 5 minutes, suspended in FACS buffer (1×PBS, 1% BSA), and aliquoted into a 96-well plate at 1×10⁶ cells per well. The anti-DDR1 monoclonal antibodies or appropriate isotype controls at 2 μg per 1×10⁶ cells were added and incubated at 4° C. for 1 hr. The cells were washed twice with FACS buffer then stained with the anti-IgG-PE secondary antibody at 10 μL per well at 4° C. for 1 hr. The cells were washed again and measured for the MFI values or signals using flow cytometry (LSR Fortessa instrument, BD Biosciences). Background MFI signals from vector-only cells (i.e. no DDR1 or DDR2 expression) was subtracted from those of the cells treated with antibodies. Higher MFI values or signals indicated increased binding or specificity of the anti-DDR1 antibodies to the DDR1 on the cell surface.

Test [12] addresses T3, DDR1ECD-Fc (R&D Systems, Catalog …). The test is described as follows: ELISA.
Test [13] addresses human DDR1 (isoform B) stably expressed on HEK293 cells (human) (UniProt Q08345). The test is described as follows: flow cytometry, HEK293/human DDR1, normalized to empty-vector cells.

Experimental findings from patent US20140086913A1 (Gilead, published 2014) are described below.

Like-named read-outs stand apart in the source and are kept apart here.

Chain of human DDR1 (isoform B) stably expressed on HEK293 cells (human) (Q08345 19-913): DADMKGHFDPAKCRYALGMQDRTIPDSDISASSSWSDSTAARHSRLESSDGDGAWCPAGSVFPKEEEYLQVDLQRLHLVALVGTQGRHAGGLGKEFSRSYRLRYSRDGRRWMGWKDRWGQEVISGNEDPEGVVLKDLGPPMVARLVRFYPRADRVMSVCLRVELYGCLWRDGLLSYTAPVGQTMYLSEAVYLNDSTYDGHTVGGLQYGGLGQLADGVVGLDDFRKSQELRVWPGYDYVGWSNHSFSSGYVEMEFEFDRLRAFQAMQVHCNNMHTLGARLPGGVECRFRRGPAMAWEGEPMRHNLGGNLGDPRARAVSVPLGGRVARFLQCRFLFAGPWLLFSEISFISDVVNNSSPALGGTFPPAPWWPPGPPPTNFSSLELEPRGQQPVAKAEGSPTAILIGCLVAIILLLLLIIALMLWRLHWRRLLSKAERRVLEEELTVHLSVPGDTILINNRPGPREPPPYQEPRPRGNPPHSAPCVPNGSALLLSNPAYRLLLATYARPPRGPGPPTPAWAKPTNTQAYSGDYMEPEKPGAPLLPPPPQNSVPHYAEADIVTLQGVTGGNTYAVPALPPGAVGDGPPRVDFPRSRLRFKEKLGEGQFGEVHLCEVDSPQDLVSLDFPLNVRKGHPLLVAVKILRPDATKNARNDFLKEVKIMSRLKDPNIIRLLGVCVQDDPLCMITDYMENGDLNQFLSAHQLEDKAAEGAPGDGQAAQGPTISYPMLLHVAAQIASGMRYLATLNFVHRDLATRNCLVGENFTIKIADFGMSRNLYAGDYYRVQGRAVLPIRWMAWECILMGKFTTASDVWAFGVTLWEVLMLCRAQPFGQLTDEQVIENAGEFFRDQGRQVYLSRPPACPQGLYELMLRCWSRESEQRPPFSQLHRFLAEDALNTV

B1: AB2080 (antibody, V domains shown)
VH: EVQLQQSGPELVKPGASMKISCKASGYSFTGYTMTWVKQSHGKNLEWIGLINPYIGVTSYNQKFKGKATLTVDKSSSTAYMELLSLTSEDSAVYYCARLYDRGGRYAMDYWGQGTSVTVSS
VL: QIVLTQSPAIMSASPGEKVPMTCSASSSVSFMHWYQQKSGTSPKRWIYDTSKLASGVPARFSGSGSGTSYSLTISNMEAEDAATYYCQQWNSDPWTFGGGSKL
notes: mouse hybridoma mAb
For B1, the Mean EC50, DDR1 Tyr513 phosphorylation assay (U20S) in test [1] is 2.2 nM. For the same molecule, the figures for the Kd (with mouse ECD-DDR1-Fc; in test [2]; in [3]) were 2.89 nM, 0.418 nM and 0.669 nM, respectively. In test [4], this molecule yielded an EC50, DDR1 phospho-specific ELISA (T47D) of 4.67 nM. This molecule also returned an EC50, cluster formation assay (A431 cells) in test [4] of 1.24 nM. In addition, the Maximal inhibition, DDR1 phospho-specific ELISA (T47D) in test [4] was found to be 100%. For the same molecule, the MFI in [5] amounted to 3140 MFI; in [6] it was 572 MFI; in [7], 1220 MFI; in [8], 313 MFI.

B2: AB2061 (antibody, V domains shown)
VH: EIQLQQSGPELVNPGASVKVSCKASGYSFTDYNMYWVKQSHGKSLEWIGYIDPYNGGTSYNQKFKGKATLTVDKSSSTAFMHLNSLTSEDSAVYYCAREYYGSRLWYFDVWGAGTAVTVSS
VL: DIVMTQSPSSLAMSVGQKVTMSCKSSQSLLNRNNQKNYLAWYQQKPGQSPKLLVYFASTRESGVPDRFIGSGSGTDFTLTLSSVRAEDLAENFCQQHYSTPFTFGSGTRLEIKR
notes: mouse hybridoma mAb
Turning to B2, the Kd with mouse ECD-DDR1-Fc came to 28 nM; in test [2], 0.391 nM; in test [3] it was 0.418 nM. The MFI was 7500 MFI in [5], 1200 MFI in test [6], 4620 MFI in [7] and 384 MFI in test [11]. The Mean EC50, DDR1 Tyr513 phosphorylation assay (U20S) in test [9] came out at 2.5 nM. The EC50, DDR1 phospho-specific ELISA (T47D) in [10] was 0.66 nM. Further, the EC50, cluster formation assay (A431 cells) in test [10] was 0.88 nM. The molecule further came in with a Maximal inhibition, DDR1 phospho-specific ELISA (T47D) in test [10] of 100%. For the same molecule, in test [10], the NPI of cluster formation at 66 nM (A431 cells) came to 126%.

B3: AB2074 (antibody, V domains shown)
VH: B2 VH
VL: B2 VL
notes: mouse hybridoma mAb
Take B3: the Kd with mouse ECD-DDR1-Fc came out at 28.5 nM; in test [2] it was 0.47 nM; in test [3] it was 0.259 nM; in [12], 0.259 nM. Besides, the MFI in [5] was 7810 MFI; in test [6], 1470 MFI; in [7], 4420 MFI; in test [11], 382 MFI; in test [13], 7810 MFI. The Mean EC50, DDR1 Tyr513 phosphorylation assay (U20S) in [9] stood at 1.5 nM. In test [10], this molecule registered an EC50, DDR1 phospho-specific ELISA (T47D) of 0.47 nM. The molecule also had a Maximal inhibition, DDR1 phospho-specific ELISA (T47D) in test [10] of 100%. This molecule displayed an NPI of cluster formation at 66 nM (A431 cells) in test [10] of 112%.

B4: AB2026 (antibody, V domains shown)
VH: EVQLVESGGGLVQPGGSLKFSCAASGFTFSSYGMSWVRQTPDKRLELVAIINSHGFSTYYPDSVKGRFTISRDNAKNTLYLQMSSLKSEDTAIYYCARGGYGNYGMDYWGQGTSVTVSS
VL: DIVLTQSPASLAVSLGQRATISCRASESVDSYGNSFMHWYQQKVGQPPKLLIFRASNIESGIPARFSGSGSRTDFTLTINSVEADDVATYYCQQSNEAPYTFGGGTKLEIKR
notes: mouse hybridoma mAb
Molecule B4 registered a Mean EC50, DDR1 Tyr513 phosphorylation assay (U20S) in test [1] of 1.7 nM. Further, the Kd in the test with mouse ECD-DDR1-Fc is 17.9 nM; in test [2] it was 0.161 nM; in test [3], 0.298 nM; in [12], 0.298 nM. In addition, the MFI is 6350 MFI in [5]; 1540 MFI in test [6]; 4670 MFI in test [7]; 203 MFI in test [11]; 6350 MFI in test [13]. For the same molecule, in [10], the EC50, DDR1 phospho-specific ELISA (T47D) is 0.39 nM. Moreover, the Maximal inhibition, DDR1 phospho-specific ELISA (T47D) in test [10] came to 100%. The NPI of cluster formation at 66 nM (A431 cells) in [10] was 115%.

B5: AB2031 (antibody, V domains shown)
VH: B4 VH
VL: B4 VL
notes: mouse hybridoma mAb
For B5, in test [1], the Mean EC50, DDR1 Tyr513 phosphorylation assay (U20S) was 0.99 nM. Also, the Kd with mouse ECD-DDR1-Fc came out at 17.3 nM; in [2], 0.148 nM; in test [3], 0.257 nM; in [12], 0.257 nM. Also, the MFI worked out at 8540 MFI in test [5]; 1460 MFI in test [6]; 4600 MFI in test [7]; 195 MFI in [11]; 8540 MFI in test [13]. For the same molecule, in test [10], the EC50, DDR1 phospho-specific ELISA (T47D) was 0.4 nM. The EC50, cluster formation assay (A431 cells) in [10] amounted to 0.63 nM. In test [10], the Maximal inhibition, DDR1 phospho-specific ELISA (T47D) is 100%. This molecule registered an NPI of cluster formation at 66 nM (A431 cells) in test [10] of 113%.
